Test results reported in patent US11136597B2, “Compositions for enhancing targeted gene editing and methods of use thereof” (Yale University, priority 2016, dated 2021).

Key:
F508del CFTR [1] = experiment: MQAE assay measuring chloride flux in CFBE cells; assay type: cell-based; conditions: NPs containing γtcPNAs with 4 γ residues in the Hoogsteen domain, versus unmodified PNA
Excerpt: (§1) FIG. 7A is a bar graph showing the results of a MQAE (N-(Ethoxycarbonylmethyl)-6-Methoxyquinolinium Bromide) assay (delta(AFU)/(delta(Time (sec)) measuring chloride flux for negative control CFBE cells; CFBE cells treated with blank nanoparticles, PNA2: lys-lys-lys-TJTJJTTT-OOO-TTTCCTCTATGGGTAAG-lys-lys-lys (SEQ ID NO:93)-loaded nanoparticles, PNA2 (SEQ ID NO:93)-loaded nanoparticles with an MPG peptide, γPNA2 lys-lys-lys-TJTJJTTT-OOO-TTTCCTCTATGGGTAAG-lys-lys-lys (SEQ ID NO:69)-loaded nanoparticles; and untreated positive control wildtype 16HBE14o-cells. FIG. 7B is a dot pot showing nasal potential difference (NPD) (pretreatment, after treatment with γPNA2 (SEQ ID NO:69)-loaded nanoparticles, and after treatment with blank nanoparticles) measured using a non-invasive assay used to detect chloride potential differences in vivo.
(§2) A substantial increase in gene editing in F508del CFTR using γtcPNAs with just partial γ substitution and only in the Hoogsteen domain of CF PNA2.

F508del CFTR [2] = experiment: Nasal potential difference (NPD) in CF mice after intranasal delivery; assay type: in vivo, mouse; conditions: intranasal delivery of NPs
Excerpt: as §1, §2

[3] = test system: CD117+ cells from β-globin/GFP transgenic mice; experiment: Ex vivo gene editing in pre-sorted CD117+ cells with or without SCF or c-Kit pathway kinase inhibitors; assay type: cell-based, mouse
Protocol: For CD117+ cell experiments, Iscove's Modified Dulbecco's Media (IMDM) media containing insulin (10 ng/ml), FCS (10%) and erythropoietin (1 U/ml) was used to culture CD117+ cells after isolation using magnetic separation. Where indicated, 3 μg/ml of SCF (Recombinant murine SCF, catalog #250-03, PeproTech, Rocky Hill, N.J.;) was added prior to nanoparticle treatment. 2 mg/ml of NPs were used to treat 50,000-100,000 CD117+ cells in triplicate for 48 hrs in the above media, followed by flow cytometry analyses as above. Inhibitors were used at concentrations of 200 nM (dasatinib), 1.0 μM (MEK162) and 3.0 μM (BKM120). Dasatanib was obtained from Cayman Chemical (Ann Arbor, Mich.; item #11498) and dissolved according to manufacturer's protocol. MEK162 and BKM120 were obtained from Dr. Harriet Kluger, Yale University.
BD Bioscience kit catalog #558451 (BDImag™ Hematopoietic Progenitor Stem Cell Enrichment Set—DM) was used to isolate CD117 cells. Enrichment for CD117 was confirmed by flow cytometry. CD117+ enriched cells were labeled with CD117-APC (BD Pharmingen™ catalog #558451) antibody. Cells were co-labelled with control IgG antibody (BD Pharmingen™ catalog #555746) for gating purposes. To quantify GFP expression, after CD117 co-labelling, flow cytometry was performed using FACScaliburS by resuspending cells in PBS/1% FBS where green fluorescent cells are measured in the Fl1 channel and APC stained cells are in the Fl4 channel Antibodies for other markers were Ter119 (BD Pharmingen™ catalog #561033) and CD45 APC (BD Pharmingen™ catalog #561018).
To explore the mechanism of the increased gene editing in CD117+ cells, the requirement of c-Kit-dependent signaling for elevated gene correction or whether CD117 simply serves as a marker for the increased susceptibility to gene editing was distinguished. To do this, γtcPNA4/donor DNA NP-mediated gene editing was assayed in pre-sorted CD117+ cells in the presence or absence of selected kinase inhibitors (FIG. 2D). Dasatinib, which inhibits the c-Kit kinase in addition to the BCR/Abl and Src kinases, reduced the gene editing from 7% to 2.0%.

[4] = test system: DNA repair genes (Rad51, BRCA2); experiment: Gene expression profiling of SCF-treated versus untreated CD117+ cells; assay type: cell-based, mouse
[5] = test system: homology-dependent repair (HDR); experiment: Luciferase reporter gene assay for homology-dependent repair (HDR) in CD117+ cells; assay type: cell-based, mouse
Protocol: An inactivating I-Sce1 site was cloned 56 amino acids into the firefly luciferase open reading frame under the control of a CMV promoter. The reporter construct also contains a promoterless luciferase gene used as a template for homologous recombination. A double-strand break in the luciferase reporter is created by in vitro digestion with the I-Sce I restriction enzyme (NEB #R0694L). Plasmid DNA was digested with I-Sce 1 for 1 hour at 37° C. at a ratio of 10 units enzyme to 1 μg DNA and then the enzyme was inactivated at 65° C. for 20 minutes. The linearization of the plasmid was confirmed for each digestion via gel electrophoresis and the linear plasmid was purified using the Qiagen Qiaquick spin columns. After separation CD117+ and CD117-cells from bone marrow of β-globin/GFP transgenic mice, cells were transfected using the Lonza 2b Nucleofector Device. 5×10^5 cells were transfected with 1 μg of either the luciferase reporter vector or a positive control firefly luciferase expression vector, along with 50 ng of a renilla luciferase expression plasmid as a transfection efficiency control. All transfections were performed in triplicate. After transfection the cells were plated at a density of 5×10^5 cells/ml in 12-well plates. After 24 hours incubation post transfection, luciferase activity was measured using the Promega Dual Luciferase Assay Kit. In each sample firefly luciferase activity was normalized to the renilla luciferase transfection control. Reporter reactivation was calculated as a ratio of normalized firefly luciferase activity in the cells transfected with the reporter plasmid to the positive control.
To test whether the above increases in DNA repair gene expression could be correlated with functional differences in DNA repair, a luciferase-based assay was used to quantify repair of DNA double-strand breaks (DSBs) by HDR. In this assay, repair of a DSB in a reporter plasmid via intramolecular homologous recombination creates (“reactivates”) a functional luciferase gene (FIG. 2H), and so the assay provides a measure of HDR capacity (FIG. 2J).

[6] = test system: human β-globin gene with the thalassemia-associated IVS2-654 mutation; experiment: Disease phenotype in IVS2-654 β-thalassemic mice (blood smears, CBC, reticulocytes, spleen); assay type: in vivo, mouse; conditions: day 36 after last treatment, four treatments at two-day intervals, SCF i.p., NPs i.v.
Protocol: The IVS2-654 β-thalassemic mice were also obtained from Ryszard Kole, University of North Carolina (Svasti, et al., Proc Natl Acad Sci USA, 106:1205-1210 (2009)). For treatment of the mice, where indicated SCF (15.6 ug per mouse, Recombinant Mouse SCF, carrier-free, R&D catalog #455-mc-050/CF) was injected intraperitoneally 3 hrs prior to treatment with 4 mg of NPs in 150 μl PBS delivered via retro-orbital intravenous injection. Each mouse received 4 treatments given at 48 hr intervals. Mice were anesthetized with isoflurane followed by retro-orbital bleeding (˜100 μL) using ethylenediaminetetraacetic acid-treated glass capillary tubes. The blood was evacuated into tubes with 5 μL of 0.5 M EDTA acid in heparinized coated tubes. Complete blood counts were performed using a Hemavet 950FS (Drew Scientific, Oxford, Conn.) according to the manufacturer's protocol. Slides containing blood smears were stained with Wright and Giemsa stain for microscopy. Methylene blue staining was used for reticulocyte counts. Spleen images and weights were taken after selected mice were sacrificed on day 36 after the last treatment. Harvested spleens were fixed in 10% neutral buffered formalin and processed by Yale Pathology Tissue Services for H&E, CD61 and E cadherin staining. […]

Molecule	increase in activity for CFTR gene correction (MQAE assay) (F508del CFTR [1])	activity in vivo by NPD measurements (F508del CFTR [2])	change of gene editing frequency on SCF treatment ([3]; CD117+ cells)	gene editing frequency in CD117+ cells treated with SCF ([3]; γtcPNA4/donor DNA NPs, 3 μg/ml SCF added prior to nanoparticle treatment) [%]	DNA repair gene expression [4]	HDR repair activity (luciferase reactivation) in CD117+ cells ([5]; CD117+ cells)	fold increase in HDR ([5]; CD117+ cells treated with SCF) [fold]	RBC morphology in blood smears [6]
lys-lys-lys-TJTJJTTT-OOO-TTTCCTCTATGGGTAAG-lys-lys-lys (lysine caps, linker, γ residues, in nanoparticles, as printed in the source, key not given here) [γPNA2, CF PNA2 with 4 γ residues in the Hoogsteen domain, delivered in nanoparticles]	more than 50%	substantial increase in activity						
SCF: recombinant murine stem cell factor, the ligand for c-Kit (protein) MKEICGNPVTDNVKDITKLVANLPNDYMITLNYVAGMDVLPSHCWLRDMVIQLSLSLTTLLDKFSNISEGLSNYSIIDKLGKIVDDLVLCMEENAPKNIKESPKRPETRSFTPEEFFSIFNRSIDAFKDFMVASDTSDCVLSSTLGPEKDSRVSVTKPFMLPPVA			almost doubles the frequency	~15	additional up-regulation of numerous DNA repair genes	further boosted	2	not
